Patent publication WO2009138413A1 (dated 2009)

Experiments:
human IL-13 = human IL-13 (human, UniProt P35225 35-146); assay: cell-based or functional assay
cynomolgus IL-13 = cynomolgus IL-13 (cynomolgus, UniProt Q0PW92 21-132); assay: cell-based or functional assay
cynomolgus IL-13, sequence (Q0PW92 entry or part of it): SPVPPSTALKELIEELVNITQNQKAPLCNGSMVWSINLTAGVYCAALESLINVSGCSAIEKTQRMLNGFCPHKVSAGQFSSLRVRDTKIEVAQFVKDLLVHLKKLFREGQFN

human IL-13, sequence (P35225 35-146 limits assumed): as the sequence (Q0PW92 entry or part of it) above, with S1G, K10R, V42M, N67S, R83H, V100L counted along it

Binder | EC50, FIG. 1A HEK STAT6 assay with human IL-13 (human IL-13) [nM] | EC50, FIG. 1B HEK STAT6 assay with cynomolgus IL-13 (cynomolgus IL-13) [nM] | EC50, FIG. 1A HEK STAT6 assay with human IL-13, sample JAL050308_20p (human IL-13) [nM] | EC50, FIG. 1A HEK STAT6 assay with human IL-13, sample JAL050308_20s (human IL-13) [nM] | EC50, FIG. 1B HEK STAT6 assay with cynomolgus IL-13, sample JAL050308_20p (cynomolgus IL-13) [nM] | EC50, FIG. 1B HEK STAT6 assay with cynomolgus IL-13, sample JAL050308_20s (cynomolgus IL-13) [nM]
DOM10-53-474 (VHH) VHH: GVQLLESGGGLVQPGGSLRLSCAASGFTFAWYDMGWVRQAPGKGLEWVSSIDWHGEVTYYADSVKGRFTISRDNSKNTLYLQMNSLRAEDTAVYYCATAEDEPGYDYWGQGTLVTVSS | 0.72 | 10.8 |  |  |  | 
DOM10-275-78 (VHH) VHH: EVQLLESGGGLVQPGGSLRLSCVASGFTFDVAEMDWVRQAPGKGLEWVSTISPSRRGTYYADSVKGRFTISRDNSKNTLYLQMNSLRAEDTAVYYCAKAYTGRSLWGPGTLVTVSS |  |  | 2.65 | 2.42 | 1.37 | 1.37
